Assay results as given in publication PMC3280358 (2012).
Changes are numbered by the printed parent chain. In names and notes the source's numbering stands.

B1: Nbs1 (1-382) K160M (domain or fragment)
chain: MWKLLPAAGPAGGEPYRLLTGVEYVVGRKNCAILIENDQSISRNHAVLTANFSVTNLSQTDEIPVLTLKDNSKYGTFVNEEKMQNGFSRTLKSGDGITFGVFGSKFRIEYEPLVACSSCLDVSGKTALNQAILQLGGFTVNNWTEECTHLVMVSVKVTIMTICALICGRPIVKPEYFTEFLKAVESKKQPPQIESFYPPLDEPSIGSKNVDLSGRQERKQIFKGKTFIFLNAKQHKKLSSAVVFGGGEARLITEENEEEHNFFLAPGTCVVDTGITNSQTLIPDCQKKWIQSIMDMLQRQGLRPIPEAEIGLAVIFMTTKNYCDPQGHPSTGLKTTTPGPSLSQGVSVDEKLMPSAPVNTTTYVADTESEQADTWDLSERPK
B2: recombinant fragment of Nbs1 (residues 1-382), wild type (domain or fragment)
chain: B1 chain with M160K

Columns and labels:
[1] = biological target: T13 monophosphorylated Rad51 NTD peptide (human, UniProt Q06609, phosphothreonine at T13); test: ITC
[2] = biological target: T13/S14 diphosphorylated Rad51 NTD peptide (human, UniProt Q06609, phosphothreonine at T13; phosphoserine at S14); test: ITC

Binder	Kd [1] [µM]	Kd [2] [µM]
B1	24	
B2		57
